# Experimental data as given in US20240301052A1 (LANOVA MEDICINES DEVELOPMENT, published 2024).
# Read-outs that look alike come from different tables or passages of the source.
# T1: human SLC34A2 (human, UniProt O95436 1-690)
# T1 construct: whole, on cells; also called human solute carrier 34 A2; NaPi2b
# T1 sequence (looked up): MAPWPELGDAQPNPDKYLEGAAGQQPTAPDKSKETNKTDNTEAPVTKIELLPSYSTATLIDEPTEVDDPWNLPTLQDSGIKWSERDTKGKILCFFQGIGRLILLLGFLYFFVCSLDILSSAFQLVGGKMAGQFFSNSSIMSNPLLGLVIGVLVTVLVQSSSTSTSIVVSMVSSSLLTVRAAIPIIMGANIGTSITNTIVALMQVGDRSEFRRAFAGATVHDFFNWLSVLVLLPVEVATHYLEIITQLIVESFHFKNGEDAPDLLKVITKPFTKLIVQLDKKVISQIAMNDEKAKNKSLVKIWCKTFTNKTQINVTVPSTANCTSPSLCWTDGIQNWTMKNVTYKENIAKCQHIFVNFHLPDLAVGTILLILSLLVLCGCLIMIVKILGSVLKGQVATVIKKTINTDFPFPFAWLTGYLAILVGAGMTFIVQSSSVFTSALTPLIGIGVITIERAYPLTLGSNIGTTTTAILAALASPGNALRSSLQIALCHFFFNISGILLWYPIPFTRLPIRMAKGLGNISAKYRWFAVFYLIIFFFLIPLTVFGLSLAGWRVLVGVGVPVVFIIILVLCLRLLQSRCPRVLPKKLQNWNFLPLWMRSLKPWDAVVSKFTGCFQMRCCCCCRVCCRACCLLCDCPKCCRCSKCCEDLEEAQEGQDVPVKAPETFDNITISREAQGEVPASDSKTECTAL
# T2: Rhesus SLC34A2 (Rhesus, UniProt F7HDA3 1-690)
# T2 construct: whole, on cells
# T2 sequence: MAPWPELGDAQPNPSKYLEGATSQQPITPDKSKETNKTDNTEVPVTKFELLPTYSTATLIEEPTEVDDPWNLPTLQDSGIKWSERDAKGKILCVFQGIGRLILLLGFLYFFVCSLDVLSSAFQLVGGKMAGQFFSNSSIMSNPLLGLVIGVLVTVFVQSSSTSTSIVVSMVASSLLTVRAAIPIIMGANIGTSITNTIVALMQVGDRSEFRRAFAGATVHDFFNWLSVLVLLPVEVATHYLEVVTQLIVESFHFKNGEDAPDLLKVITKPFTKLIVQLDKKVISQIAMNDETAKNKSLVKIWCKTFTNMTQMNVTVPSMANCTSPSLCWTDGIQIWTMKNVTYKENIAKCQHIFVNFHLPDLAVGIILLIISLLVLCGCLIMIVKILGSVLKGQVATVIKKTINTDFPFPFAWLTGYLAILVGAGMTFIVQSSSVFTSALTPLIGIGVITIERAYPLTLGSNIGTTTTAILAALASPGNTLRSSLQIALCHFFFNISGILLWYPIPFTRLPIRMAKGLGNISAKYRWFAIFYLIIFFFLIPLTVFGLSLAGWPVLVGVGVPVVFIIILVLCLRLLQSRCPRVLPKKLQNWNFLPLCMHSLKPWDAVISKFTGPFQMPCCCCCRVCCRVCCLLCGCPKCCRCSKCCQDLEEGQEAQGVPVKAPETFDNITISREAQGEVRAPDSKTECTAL
# Legend:
# [1] = molecular target: T1, human SLC34A2; assay: FACS, RMG-1 cells
# Outline: (§1)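 First, cells expressing human SLC34A2 are incubated with hu Abs at 4° C. for 60 minutes. Next they are washed twice and stained with fluorescent secondary antibody for 30 minutes at 4° C. Finally, after two further washes, binding is measured by flow cytometry.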
# [2] = molecular target: T1, human SLC34A2; assay: FACS, OVCAR3 cells
# Outline: as §1
# [3] = molecular target: T1, human SLC34A2; assay: FACS, OVCAR3 cells; remark: listed apart in the source
# [4] = molecular target: T1, human SLC34A2; assay: FACS, MDAH2774 cells
# [5] = molecular target: T1, human SLC34A2; assay: cell-based or functional assay
# [6] = molecular target: T1, human SLC34A2; assay: cell-based or functional assay; remark: listed apart in the source
# [7] = molecular target: T1, human SLC34A2; assay: FACS, HEK293/human SLC34A2 cells
# Outline: as §1
# [8] = molecular target: T2, Rhesus SLC34A2; assay: FACS, HEK293/Rhesus SLC34A2 cells
# [9] = molecular target: T2, Rhesus SLC34A2; assay: FACS, HEK293/Rhesus SLC34A2 cells; remark: listed apart in the source
binder,measurement,setting,value
"30H9B8F9.p1.z5 hIgG1 (antibody, V domains shown, humanized hIgG1) VH: QVQLVQSGAEVKKPGASVKVSCKTSGYTFTTNNMHWVRQAPGQGLEWIGAIYPGSGATAYNQKFKGRVTMTADTSTSTVYMELSSLRSEDTAVYYCARGMYGHGAMDYWGQGTLVTVSS VL: DIQLTQSPSFLSASVGDRVTITCKASQDVGTAVAWYQQKPGKAPKLLIYWATTRHSGVPSRFSGSGSGTEFTLTISSLQPEDFATYYCQQYSSNPLTFGQGTKLEIK",EC50,[1],1.39 nM
same,Top,[1],10900 MFI
same,EC50,[2],0.94 nM
same,EC50,[3],0.9 nM
same,EC50,[4],1.28 nM
same,ADCC reporter EC50,[5],0.72 nM
same,ADCC reporter Top (MFI),[5],135000 MFI
same,ADCC-HEK293,[6],1.4 nM
same,ADCC-OVCAR3,[6],0.16 nM
same,Cytotoxic Effect - MDAH-2774,[6],0.21 nM
same,Cytotoxic Effect - OVCAR3,[6],0.02 nM
same,EC50,[7],1.55 nM
same,Top,[7],35200 MFI
same,EC50,[8],0.7 nM
same,Top (MFI),[8],16000 MFI
same,EC50,[9],0.7 nM
